Data reported in patent publication US20250304700A1, “ANTI-BLOOD DENDRITIC CELL ANTIGEN 2 ANTIBODIES AND USES THEREOF” (Biogen MA Inc., priority 2012, published 2025).

Tests used:
[1] = system: surface rat Clec4b2; assay: Direct FACS binding to surface rat Clec4b2; conditions: 293E cells co-transfected with rat Clec4b2/FcεRIγ
From the text: To determine whether the lead hu24F4 H4/L1 C95A mAb was capable of binding to surface rat Clec4b2, 293E cells were transiently co-transfected with an EGFP reporter expression vector (pEAG1458) and either human BDCA2/FcεRIγ vectors (pEAG2420 and pEAG2413) or rat Clec4b2/FcεRIγ vectors (pCN834 and pCN844) at 1:1:1 molar ratios. At 3 days post-transfection cells were harvested and stained with the lead hu24F4 H4/L1 C95A mAb in a dilution titration direct FACS binding assay, gating on live EGFP-positive cells.

[2] = target: T1, human BDCA2 ectodomain (Homo sapiens, UniProt Q8WTT0); assay: Octet binding of mAbs on anti-human Fc tips to monomeric huBDCA2
T1 construct: huBDCA2 ectodomain: residues 257-425 above (underlined); murine IgG2a Fc (with G4S linker) (N, cleaved yes); made in house
T1 sequence (Q8WTT0 45-213): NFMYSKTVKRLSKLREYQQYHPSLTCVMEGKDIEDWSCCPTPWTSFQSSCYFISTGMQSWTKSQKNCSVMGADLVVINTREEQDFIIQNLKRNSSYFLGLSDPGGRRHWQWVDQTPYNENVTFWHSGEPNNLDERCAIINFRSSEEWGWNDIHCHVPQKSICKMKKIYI
Method: Site-directed mutagenesis was performed using Agilent's QuikChange II mutagenesis kit following the manufacturer's recommended protocol. The C95S variant was constructed using the mutagenic primer 5′ GCAACCTATTACTGTCAACAAAGTAATGAGGATCCTCGGAC 3′ (SEQ ID NO: 38) and its reverse complement, which introduced a new HincII site, producing plasmid pEAG2678. The C95T variant was constructed using the mutagenic primer 5′ CAACCTATTACTGTCAGCAAACTAATGAAGATCCTCGGACGTTCG 3′ (SEQ ID NO: 39) and its reverse complement, which removed a BamHI site, producing plasmid pEAG2679. Mutated plasmids were identified by screening for the introduced restriction site changes. The full-length light chain cDNA sequences in the resultant plasmids were confirmed by DNA sequencing. Wildtype ch24F4 and the C95S and C95T variant mAbs were expressed transiently in 293E cells by co-transfection of pYL672 and pYL671, pEAG2678 or pEAG2679. Conditioned medium was harvested at 2 days post-transfection. Titers (assayed by Octet on anti-human Fc tips) of both variants were similar to that of wildtype ch24F4, and Western blots of nonreducing SDS-PAGE indicated no gross aggregation or obvious clipping relative to wildtype ch24F4 mAb. […] Conditioned medium containing ch24F4 and the C95 variant mAbs was assayed by Octet for binding to human BDCA2 ectodomain. Antibodies from conditioned medium from transiently transfected cells were bound to anti-human Fc tips, then monomeric huBDCA2 was flowed over the Octet tips, to examine binding and dissociation.
Conditioned medium containing ch24F4 and all hu24F4 variant mAbs was assayed by Octet for binding to human BDCA2 ectodomain. The monomeric huBDCA2 ectodomain was prepared by proteolytic cleavage from the purified muIgG2a Fc-huBDCA2 fusion protein (relevant plasmid: pEAG2423). Antibodies from conditioned medium from transiently transfected cells were bound to anti-human Fc tips, and then monomeric huBDCA2 was flowed over the Octet tips, to examine binding and dissociation.
To explore the possibility of enhancing hu24F4 affinity by substitution at the position of the 24F4 version L1 CDR L3 unpaired cysteine (C95S in hu24F4 light chain expression vector pYL740), a number of version L1 variants were constructed by site-directed mutagenesis. Backmutation to the unpaired cysteine, i.e., S95C, was constructed by site-directed mutagenesis producing plasmid pYL749. Variants S95T, S95A, and S95V were constructed by site-directed mutagenesis producing plasmids pYL750, pYL751, and pYL752, respectively. The full-length light chain cDNA sequences in the resultant plasmids were confirmed by DNA sequencing. C95 variant hu24F4 mAbs were expressed transiently in 293E cells by co-transfection of hu24F4 H4 heavy chain pYL746 or hu24F4 H5 heavy chain pYL747 with hu24F4 L1 variant light chains C95S pYL740, S95C pYL749, S95T pYL750, S95A pYL751 or S95V pYL752 plasmids. Conditioned medium was harvested at 2 days post-transfection. Titers (assayed by Octet on anti-human Fc tips) of all variants were similar, and Western blots of nonreducing SDS-PAGE indicated no gross aggregation or obvious clipping. Conditioned medium containing the C95 variant mAbs was assayed by Octet for binding to human BDCA2 ectodomain. Antibodies from conditioned medium from transiently transfected cells were bound to anti-human Fc tips, then monomeric huBDCA2 was flowed over the Octet tips, to examine binding and dissociation. C95A variants had the slowest off-rates.

[3] = target: T2, surface human BDCA2 (Homo sapiens, UniProt Q8WTT0); assay: Direct binding dilution titration FACS on surface human BDCA2; conditions: transfected cells co-expressing BDCA2 and FcεRIγ
T2 construct: stably transfected DG44 CHO cells co-expressing full-length BDCA2 and FcεRIγcDNAs (human or cynomolgus monkey); expressed in transfected cells
T2 sequence (Q8WTT0 1-213): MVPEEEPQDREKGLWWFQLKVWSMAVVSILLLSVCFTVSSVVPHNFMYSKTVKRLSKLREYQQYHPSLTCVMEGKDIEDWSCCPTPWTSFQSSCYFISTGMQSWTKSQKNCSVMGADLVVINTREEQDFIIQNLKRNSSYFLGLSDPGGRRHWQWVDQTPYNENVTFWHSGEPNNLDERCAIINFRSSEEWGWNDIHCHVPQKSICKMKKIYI
T2 sequence (P30273 19-86 partner): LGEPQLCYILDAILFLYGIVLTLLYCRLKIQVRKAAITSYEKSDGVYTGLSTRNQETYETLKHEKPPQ
Method: Expression vectors (ch24F4 heavy chain vectors pYL670 or pYL672 and ch24F4 light chain vector pYL671) were co-transfected into 293-EBNA cells and transfected cells were tested for antibody secretion and specificity (empty vector- and a molecularly cloned irrelevant mAb vector-transfected cells served as controls). […] Direct FACS binding to surface human BDCA2 confirmed the specificity of ch24F4. The EC50 binding of both variants of ch24F4 was equivalent to that of the murine 24F4 mAb by direct binding to surface expressed human BDCA2 by dilution titration FACS assay. Stable CHO cell lines secreting ch24F4-huIgG1, kappa mAb and agly ch24F4-huIgG4/G1 hybrid kappa mAb were produced by co-transfection with pYL672/pYL671 and pYL670/pYL671, respectively.
Site-directed mutagenesis was performed using Agilent's QuikChange II mutagenesis kit following the manufacturer's recommended protocol. The C95S variant was constructed using the mutagenic primer 5′ GCAACCTATTACTGTCAACAAAGTAATGAGGATCCTCGGAC 3′ (SEQ ID NO: 38) and its reverse complement, which introduced a new HincII site, producing plasmid pEAG2678. The C95T variant was constructed using the mutagenic primer 5′ CAACCTATTACTGTCAGCAAACTAATGAAGATCCTCGGACGTTCG 3′ (SEQ ID NO: 39) and its reverse complement, which removed a BamHI site, producing plasmid pEAG2679. […]

[4] = Example 5, conditioned medium, hu24F4 variants
[5] = Example 6, conditioned medium, L1 position 95 variants

Sequence of surface rat Clec4b2 (as listed by the source): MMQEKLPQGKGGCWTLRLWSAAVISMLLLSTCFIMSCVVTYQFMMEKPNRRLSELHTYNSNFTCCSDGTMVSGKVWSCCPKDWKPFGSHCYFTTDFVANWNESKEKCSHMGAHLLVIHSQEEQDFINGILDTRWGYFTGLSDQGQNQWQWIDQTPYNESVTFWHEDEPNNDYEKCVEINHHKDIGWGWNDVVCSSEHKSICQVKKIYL
Sequence of surface rat Clec4b2 (P20411 19-86 partner): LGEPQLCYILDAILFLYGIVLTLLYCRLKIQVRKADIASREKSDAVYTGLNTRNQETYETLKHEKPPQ

| Substance | binding to surface rat Clec4b2 [1] | kdis [2, 4] | kon [2, 4] | kdis [2, 5] | kon [2, 5] | direct binding to surface human BDCA2, in words [3] |
| --- | --- | --- | --- | --- | --- | --- |
| BIIB059: humanized IgG1 anti-BDCA2 antibody, mature heavy chain SEQ ID NO: 4 and mature light chain SEQ ID NO: 3 | no binding to surface rat Clec4b2 was detected | – | – | – | – | – |
| 24F4S: hu24F4 H4/L1 with C95S light chain; differs from BIIB059 by 1 amino acid residue | – | 0.000408 s⁻¹ | 549000 M⁻¹ s⁻¹ | 0.000398 s⁻¹ | 727000 M⁻¹ s⁻¹ | “best” variants |
